Consider 13 molecules from patent US20250129169A1 (Stanford University, published 2025).

Assay [1] addresses T1, Human γC ECD (human, UniProt P31785 23-262, biotinylated (site not stated)).
T1 construct: extracellular domain; Biotinylated and held on a streptavidin chip for SPR; also called common gamma; biotinylated human γC ECD
T1 sequence (looked up): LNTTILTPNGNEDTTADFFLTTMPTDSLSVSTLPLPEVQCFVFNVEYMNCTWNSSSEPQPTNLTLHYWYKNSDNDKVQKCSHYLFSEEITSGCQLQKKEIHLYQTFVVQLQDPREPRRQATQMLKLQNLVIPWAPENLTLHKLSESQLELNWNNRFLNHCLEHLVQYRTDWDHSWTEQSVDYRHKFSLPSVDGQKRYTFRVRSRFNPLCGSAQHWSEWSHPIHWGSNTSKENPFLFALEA
The experiment in a line: SPR, steady-state binding affinity (drawn table). Here is the method: (§1) FIGS. 2A-2H show data on SPR validation of IL-2Rβ- and γc-VHHs and agonist screening in YT-1 cells. (A) Biotinylated human IL-2Rβ ECD was immobilized on a streptavidin (SA) sensor chip, and varying concentrations of IL-2Rβ VHH were applied to determine binding parameters using SPR. Sensorgrams are shown on the left, and steady state binding is plotted on the right. Binding affinities (KD) were determined by fitting to steady state response values. (B) Biotinylated human γC ECD was immobilized on a SA chip, and varying concentrations of γc VHH were flowed over the chip to determine binding. […] (C) Steady-state binding affinities between VHH/scFv and IL-2R, as determined by SPR. Values for scFv affinities are derived from patent US20160367664A1 (Wang et al., 2016). (D) Table of pSTAT5 Eₘₐₓ values for the indicated VHH pairings. (E) Tuning IL-2 activity via generation of acid-base VHH zipper pairings. (F) Tuning IL-2 activity via generation of 2:1 β:γc or γc:β stoichiometries. VHH binding modules are linked together in a tripartite (β-γc-β or γc-β-γc) manner. Graph axes are represented as in (E). (G) Dose-response relationship of pSTAT5 geometric mean flurorescence intensities (gMFI) of selected agonists. (H) Corresponding histograms showing STAT5 activity in YT-1 cells treated with human IL-2 vs. IL-2 surrogate agonists at saturating concentration.

The target of assay [2] is T1, Human γC ECD. Briefly: SPR; biotinylated human γc ECD on streptavidin chip, VHH as analyte; KD from fit to steady-state responses [Cont.]. Here is the method:
as §1
A general note: SPR reads the build-up and loss of mass on a sensor chip optically.

A further assay addresses T2, human IL-10Rβ ECD (human, UniProt Q08334 20-220).
T2 construct: extracellular domain; Immobilized for SPR under the same conditions as for the IL-2 specific VHHs
T2 sequence (looked up): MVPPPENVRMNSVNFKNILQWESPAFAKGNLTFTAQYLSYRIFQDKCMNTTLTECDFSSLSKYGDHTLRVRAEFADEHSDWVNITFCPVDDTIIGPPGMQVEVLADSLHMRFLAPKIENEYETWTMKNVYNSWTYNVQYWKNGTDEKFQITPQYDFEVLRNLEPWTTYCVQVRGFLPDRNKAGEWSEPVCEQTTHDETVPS
Briefly: SPR, kinetic fit, immobilized human IL-10Rβ ECD. The protocol: (A) SPR sensorgrams displaying dose-dependent binding of IL-10Rβ VHHs to immobilized human IL-10Rβ ECD. SPR experiments were performed using the same conditions as for IL-2 specific VHHs. Binding constants were determined from kinetic fitting and summarized in (B).

Assay [3] concerns the target T3, Human IL-2Rβ ECD (human, UniProt P14784 27-240, biotinylated (site not stated)).
T3 construct: extracellular domain; Biotinylated and held on a streptavidin chip for SPR; also called biotinylated human IL-2Rβ ECD
T3 sequence (looked up): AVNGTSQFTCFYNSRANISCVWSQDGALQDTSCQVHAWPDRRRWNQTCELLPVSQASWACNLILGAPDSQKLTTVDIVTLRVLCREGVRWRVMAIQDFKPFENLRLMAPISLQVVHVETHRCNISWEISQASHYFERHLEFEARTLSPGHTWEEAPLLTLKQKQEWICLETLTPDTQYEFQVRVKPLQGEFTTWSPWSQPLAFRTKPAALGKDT
The experiment in a line: SPR, steady-state binding affinity (drawn table). Here is the method: as §1

The target of assay [4] is T3, Human IL-2Rβ ECD. The experiment in a line: SPR; biotinylated human IL-2Rβ ECD on streptavidin chip, VHH as analyte; KD from fit to steady-state responses [Cont.]. The protocol: as §1
Assay [5] addresses T1, Human γC ECD. Briefly: drawn table of affinities; the scFv value is derived from patent US20160367664A1 (Wang et al., 2016), not measured in this filing.

B1: γc-VHH4 (VHH)
VHH: QVQLQESGGGSVQAGGSLRLSCTASGFTFNEANHMGWYRQAPGNECELVSTISSDGTTYYPDSVKGRFTISQDNAKKTAFLQMNSLKPEDTAVYYCAADQSRRGSLCLGQGTQVTVSS
notes: also called γC nanobody clone 4
The Kd is a measure of binding affinity in units of concentration. Higher therefore signals lower affinity. As to B1, the Kd came out at 20 nM with Human γC ECD [1] and 19.7 nM with Human γC ECD [2].

B2: 10Rβ-VHH2 (VHH)
VHH: QVQLQESGGGSVQTGGSLRLSCAASQVNMNSVGWFRQAPGKAREGVATISPSGGATYYTDSVKGRFTISRDNAKNTVYLQMNSLNAEDTAMYYCAADGGRDWWLLRPQTFSYWGQGTQVTVSS
notes: member of the group m13; also called VHH2 (IL-10Rβ VHH)
The molecule B2 registered a Kd in the assay with human IL-10Rβ ECD of 2.2 nM.

B3: 2Rβ-VHH6 (VHH)
VHH: QVQLQESGGGSVQAGGSLRLSCAASSYTISSVCMGWFRQAPGKEREGVAGIAPDGSTGYGDSVKGRFTISKDNAKNTLYLQMNSLKPEDTAMYYCAAASPGRCFLPRTALEPALYYNWGQGTQVTVSS
notes: also called IL-2Rβ-VHH6
Turning to B3, the Kd with Human IL-2Rβ ECD [3] and with Human IL-2Rβ ECD [4] was 25 nM in each case.

B4: 2Rβ-VHH1 (VHH)
VHH: QVQLQESGGGSVQAGGSLRLSCVTSGYTYSSANMAWFRQAPGKEREGVAIITPSGRATTYADSVKGRFTISRDNAANTLYLQMNSLKPEDTAMYYCAADTPPYSGLWYAERTYNYWGQGTQVTVSS
notes: also called IL-2Rβ-specific VHH clone 1
B4: the Kd with Human IL-2Rβ ECD [3] stood at 11 nM; in the assay with Human IL-2Rβ ECD [4] it was 10.9 nM.

B5: 2Rβ-VHH3 (VHH)
VHH: QVQLQESGGGSVQAGGSLRLSCTASGFTFDDEDMGWYRQAPGNECELVSSIGSLGRRYYADSVKDRFAISQDNAKNTVYLQMNSLKPEDTAVYYCAATKGGSWLDSILASCQGAFGYWGQGTQVTVSS
For B5, the Kd in the assay with Human IL-2Rβ ECD [3] was found to be 20 nM; with Human IL-2Rβ ECD [4], 20.2 nM.

B6: γ scFv2 (P2B9) (scFv)
scFv (VH-linker-VL): QVQLQESGPGLVKPSETLSLTCTVSGGSISSSSYYWGWIRQPPGKGLEWIGSIYYSGSTYYNPSLKSRVTISVDTSKNQFSLKLSSVTAADTAVYYCAGDILTGYALDYWGQGTLVTVSSGGGGSGGGGSGGGGSSYELTQPPSMSVSPGQTARITCSGDALPKQFAFWYQQKPGQAPVLVIYKDTERPSGIPERFSGSSSGTTVTLTITGVQAEDEADYYCQSPDSSGTVEVFGGGTKLTVL
notes: also called γc-scFv2 (P2B9)
B6: in the assay with Human γC ECD [5], the affinity, expressed as Kd, was 79 nM.

B7: 2Rβ-VHH4 (VHH)
VHH: QVQLQESGGGSVQAGGSLRLSCAASGSTSCSSVMRWYRQAPGKEREFVSSINSDRRTVYADSVKGRFTISQDNAKSTLYLQMNSLKAEDTATYYCQRELYGDSWCQGNYWGQGTQVTVSS
In the case of B7, the Kd in the assay with Human IL-2Rβ ECD [3] and with Human IL-2Rβ ECD [4] was 123 nM in each case.

B8: 10Rβ-VHH5 (VHH)
VHH: QVQLQESGGGSVQAGGSLRLSCAASGYTYSSYCMGWFRQAPGKEREGVAAIDSDGSTSYADSVKGRFTISKDNAKNTLYLQMNSLKPEDTAMYYCAAEPWCTSQGRGRESAEFGYWGQGTQVTVSS
notes: member of the group m13; also called VHH5 (IL-10Rβ VHH)
As for B8, binding in the assay with human IL-10Rβ ECD was put at a Kd of 1.7 nM.

B9: 10Rβ-VHH3 (VHH)
VHH: QVQLQESGGGSVQVGGSLRLSCAASGYTYSNYCMGWFRQAPGKEREGVATIDGDGSTRYADSVKGRFTISKDNAKNTLYLQMHSLKPEDTAMYYCAADFALCDPTVVAHTDFGYWGQGTQVTVSS
notes: member of the group m13; also called VHH3 (IL-10Rβ VHH)
B9 had a Kd in the assay with human IL-10Rβ ECD of 2.5 nM.

B10: 10Rβ-VHH4 (VHH)
VHH: QVQLQESGGGSVQAGGSLRLSCAASGYTYSSYCMGWFRQASGKEREGVATIDSDGSTRYADSVKGRFTISKDNAKNTLYLQMNSLKPEDTAMYYCAADLADCAPSIYSDYDVAHWGQGTQVTVSS
notes: member of the group m13; also called VHH4 (IL-10Rβ VHH)
Take B10: binding in the assay with human IL-10Rβ ECD was characterised by a dissociation constant (Kd) of 2.2 nM.

B11: 10Rβ-VHH1 (VHH)
VHH: QVQLQESGGGSVQAGGSLRLSCAARYTYSTYCMGWFRQAPGKEREGVAAIDSDGSTSYADSVKGRFTISKDNAKNTLYLQMNSLKPEDTAMYYCASDADCDLGGSWSTRGQGTQVTVSS
notes: member of the group m13; also called VHH1 (IL-10Rβ VHH)
As for B11, in the assay with human IL-10Rβ ECD, the Kd amounted to 1.6 nM.

B12: γc-VHH6 (VHH)
VHH: QVQLQESGGGSVQAGGSLRLSCAASGYTYRDYYMGWFRQAPGREREGVASIYTRGSREGSTRYSSSVEGRFTITLDTAKNTLYLQMNSLKPEDTAMYYCAADDRTWLPRVQLGGPRENEYNYWGQGTQVTVSS
notes: also called γC nanobody clone 6
On to B12, for which the values for the Kd with Human γC ECD [1] and with Human γC ECD [2] were 69 nM and 68.6 nM, respectively.

B13: γc-VHH3 (VHH)
VHH: QVQLQESGGGSVQAGGSLRLSCAASGYTYSKNWYMGWFRQTPGKEREGVAVIAYDDWPTYADSVKGRFTISKDNTKNTLYLQMNSLKPEDTAMYYCAARQLGGDYCYFPNLSRFCYNYWGQGTQVTVSS
notes: also called γC nanobody clone 3
B13: the equilibrium dissociation constant (Kd) was determined as 7 nM with Human γC ECD [1] and 6.7 nM in the assay with Human γC ECD [2].
